Assays:
[1] = system: MS2 coat protein; assay: apparent KD of MS2 coat protein, switch ON state; designed switch direction (-1 OFF switch, 1 ON switch): -1; higher = weaker reporter binding; details: FMN input: 0 or 200 uM; Eterna round: R93 (includes R88 designs)
Summary of the method: (§1)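 Designed RNA switches were transcribed on-chip from Illumina sequencing clusters. They were then titrated with SNAP-549-labelled MS2 coat protein (twofold steps, 0.7 or 1.5 nM to 3 µM; 0.8–1.5 h to 10–20 min per step) in 100 mM Tris-HCl pH 7.5, 80 mM KCl, 4 mM MgCl2, without or with constant ligand. Apparent KD is the per-design median of normalised cluster binding-curve fits.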

[2] = system: MS2 coat protein; assay: apparent KD of MS2 coat protein, switch OFF state (with FMN for OFF switches, without FMN for ON switches); designed switch direction (-1 OFF switch, 1 ON switch): -1; higher = weaker reporter binding; details: FMN input: 0 or 200 uM; Eterna round: R93 (includes R88 designs)
Summary of the method: as §1

[3] = system: MS2 coat protein; assay: apparent KD of MS2 coat protein; designed switch direction (-1 OFF switch, 1 ON switch): 1; higher = weaker reporter binding
Summary of the method: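 The buffer was Tris-HCl pH 7.5 with KCl, MgCl2, BSA, DTT, tRNA and Tween-20. In it, SNAP-549-labelled MS2 coat protein was titrated in doubling steps from 0.7 or 1.5 nM to 3 µM over chip-bound RNA switches transcribed by stalled E. coli RNA polymerase on Illumina chips. Apparent KD is the per-design median over clusters of curve fits to normalised fluorescence.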

[4] = input ligand: microRNA oligo, concentration not stated
[5] = Eterna round: R95, input ligand: FMN 200 uM
[6] = Eterna round: R95, input ligand: microRNA oligo, concentration not stated
[7] = Eterna round: R95, input ligand: none

Sequence: AAAAAAAGAGGAUAUACGUACAUGUCAAAAGACGUGAAGGGACAUGAGGAUCACCCAUGUAGAAGGUUUAAAAA [JL Wide Open 30]
- apparent KD of MS2 coat protein [1]: 35.5 nM
- apparent KD of MS2 coat protein [2]: 16.3 nM

Sequence: AAAAAACAUGAGGAUCACCCAUGUAAGGAUAUCCAAAAGAAAAGAAAAGAAAGAAGAAGGAGAAGGUACAAGAA [Sahure]
- apparent KD of MS2 coat protein [1]: 41.1 nM
- apparent KD of MS2 coat protein [2]: 32.4 nM

Sequence: AAAAAACAUGAGGAUCACCCAUGUAAGGAUAUCUAAAAUAAAAGAAAAAUAAAGAAAAGGAGAAGGUAUAUGAA [JL wbt mod 20]
- apparent KD of MS2 coat protein [1]: 19.8 nM
- apparent KD of MS2 coat protein [2]: 25.7 nM

Sequence: AAAAAACAUGAGGAUCACCCAUGUAAGGAUAUGCUCGAAAGUGCGAAAGCACAAACGAGCAGAAGGUACAAAAA [66%, Wbt, 45]
- apparent KD of MS2 coat protein [1]: 34.7 nM
- apparent KD of MS2 coat protein [2]: 51.9 nM

Sequence: AAAAAACAUGAGGAUCACCCAUGUAAGGAUAUGCUGAAAAACACUGGAAAACAGUGCAGCAGAAGGUACAAAAA [66%, Wbt, 34]
- apparent KD of MS2 coat protein [1]: 21.1 nM
- apparent KD of MS2 coat protein [2]: 36.1 nM

Sequence: AAAAAACAUGAGGAUCACCCAUGUAAGGAUAUGUAAAAUAAAAGAAAAAUAAAGAAAAGCAGAAGGUACAUGGA [JL wbt mod 15]
- apparent KD of MS2 coat protein [1]: 54.9 nM
- apparent KD of MS2 coat protein [2]: 91.1 nM

Sequence: AAAAAACAUGAGGAUCACCCAUGUCAGGAUAUCGAAAAAUAAAUAAAAAUAAAAUAAACGAGAAGGGACAAAAA [May 11]
- apparent KD of MS2 coat protein [1]: 39.8 nM
- apparent KD of MS2 coat protein [2]: 44.7 nM

Sequence: AAAAAACAUGAGGAUCACCCAUGUCAGGAUAUCGAAAGAAAAAAAAAGAAAGAAAAAACGAGAAGGGACAAAAA [Amethyst 29]
- apparent KD of MS2 coat protein [1]: 20.1 nM
- apparent KD of MS2 coat protein [2]: 33.1 nM

Sequence: AAAAAACAUGAGGAUCACCCAUGUGAGGAUAUCCAAAAGUUAAAGAAAAAGACGAAAAGGAGAAGGCGCAAAAA [Fiskers Exclusion D3]
- apparent KD of MS2 coat protein [1]: 68.7 nM
- apparent KD of MS2 coat protein [2]: 40.7 nM

Sequence: AAAAAACAUGAGGAUCACCCAUGUGAGGAUAUCCUAAAAAAAAAAAAAAAAAAAAAAAGGAGAAGGCACAUAAA [EXCLS-II]
- apparent KD of MS2 coat protein [1]: 47.6 nM
- apparent KD of MS2 coat protein [2]: 64.8 nM

Sequence: AAAAAACAUGAGGAUCACCCAUGUGAGGAUAUCCUGGUUGAAAAAAAAAAAACAACCAGGAGAAGGCACAAAAA [EXCL-I]
- apparent KD of MS2 coat protein [1]: 45.2 nM
- apparent KD of MS2 coat protein [2]: 57.8 nM

Sequence: AAAAAACAUGAGGAUCACCCAUGUGAGGAUAUGAUGCGAAUAAAGAAAGAAGAAAGCAUCAGAAGGCACAUAUG [Mod of Disincluded 3 (little more stable fmn state)]
- apparent KD of MS2 coat protein [1]: 39.5 nM
- apparent KD of MS2 coat protein [2]: 234 nM

Sequence: AAAAAACAUGAGGAUCACCCAUGUGAGGAUAUGCAAAACCCAUAUAAAAAGGGAAAAAGUAGAAGGCGCAAAAA [wbt round 1 mod 9]
- apparent KD of MS2 coat protein [1]: 20.5 nM
- apparent KD of MS2 coat protein [2]: 17.4 nM

Sequence: AAAAAACAUGAGGAUCACCCAUGUGAGGAUAUGCAGCGAAUAAAGAAAGAAGAAAGCAGCAGAAGGCACACCAA [Amethyst 78]
- apparent KD of MS2 coat protein [1]: 26.4 nM
- apparent KD of MS2 coat protein [2]: 44.1 nM

Sequence: AAAAAACAUGAGGAUCACCCAUGUGAGGAUAUGCUAUGGAAAUAAAAAAUAAAACAUAGCAGAAGGCACACCAA [Mat - Exclusion 1 - Eli mod - D44]
- apparent KD of MS2 coat protein [1]: 31 nM
- apparent KD of MS2 coat protein [2]: 42.9 nM

Sequence: UUAUCUUUCCGAGGAUAUCCAUAUAAUUUACAUGAGGAUCACCCAUGUUAUUGGGAGUUUUUUUAGGAGAAGGCGGUUGUAGAU [JR_SSNG2_Sub051] (Eterna round: R96, puzzle: Same State NG 2)
- apparent KD of MS2 coat protein ([3]; input ligand: FMN 200 uM): 85.1 nM
- apparent KD of MS2 coat protein [3, 4]: 61.4 nM
- apparent KD of MS2 coat protein ([3]; input ligand: none): 71.1 nM

Sequence: UUCACCUUAUUUUACAUGAGGAUCACCCAUGUUUUUUUUACGUAGGAUAUCGAUGCUUGUUUAUUCGAGAAGGACGAUGUAAGU [JR_SSND3_Sub053] (Eterna round: R96, puzzle: Same State NG 3)
- apparent KD of MS2 coat protein [3, 4]: 28 nM

Sequence: UUGAACAAUUAAGGAUAUCGAGUACAUAUGUUAAACAUGAGGAUCACCCAUGUGGGUUGCGGUAUCGAGAAGGUAAAUUAGAAG [Mat - Same State NG 2 - JL mod - D57] (Eterna round: R96, puzzle: Same State NG 2)
- apparent KD of MS2 coat protein ([3]; input ligand: FMN 200 uM): 22.8 nM
- apparent KD of MS2 coat protein [3, 4]: 25.3 nM
- apparent KD of MS2 coat protein ([3]; input ligand: none): 34 nM

Sequence: UUGAAGAAUUAAGGAUAUCGAGUACAUAUGUUAAACAUGAGGAUCACCCAUGUGGGUUGCGGUAUCGAGAAGGUAAAAUACAAG [Mat - Same State NG 2 - JL mod - D58] (Eterna round: R96, puzzle: Same State NG 2)
- apparent KD of MS2 coat protein ([3]; input ligand: FMN 200 uM): 28.8 nM
- apparent KD of MS2 coat protein [3, 4]: 26.6 nM
- apparent KD of MS2 coat protein ([3]; input ligand: none): 33.8 nM

Sequence: UUGAAGAAUUAAGGAUAUUGAAUACAUAUGUUUAACAUGAGGAUCACCCAUGUGGGUUGCGGUAUCGAGAAGGUAAAAUAAUAG [Mat - Same State NG 2 - JL mod - D4] (Eterna round: R96, puzzle: Same State NG 2)
- apparent KD of MS2 coat protein ([3]; input ligand: FMN 200 uM): 118 nM
- apparent KD of MS2 coat protein [3, 4]: 91.8 nM
- apparent KD of MS2 coat protein ([3]; input ligand: none): 110 nM

Sequence: UUGAUGUACUGAGGAUAUCGUGUCGUCUGAUUUUACAUGAGGAUCACCCAUGUGGGUUGUGGUAUCGAGAAGGCAGUUUUCUUA [JR_SSNG2_Sub029] (Eterna round: R96, puzzle: Same State NG 2)
- apparent KD of MS2 coat protein ([3]; input ligand: FMN 200 uM): 50.4 nM
- apparent KD of MS2 coat protein [3, 4]: 84.3 nM
- apparent KD of MS2 coat protein ([3]; input ligand: none): 158 nM

Sequence: UUGAUUAGAAAUUAACAUGAGGAUCACCCAUGUAUUGGAUCAGAGGAUAUGCAUGUUUGAUUGUAGCAGAAGGCUGAUUGUGGA [JR_SSNG3_Sub028] (Eterna round: R96, puzzle: Same State NG 3)
- apparent KD of MS2 coat protein ([3]; input ligand: FMN 200 uM): 43.2 nM
- apparent KD of MS2 coat protein [3, 4]: 29.5 nM
- apparent KD of MS2 coat protein ([3]; input ligand: none): 46.5 nM

Sequence: UUGCUCGUGUGAGGAUAUGCCGCCGUUUCGGCUGCAGAAGGUACUACGUUACAUGAGGAUCACCCAUGUCUCUGUUGUUUCGUG [salish99_SSNG1_r04_940] (Eterna round: R96, puzzle: Same State NG 1)
- apparent KD of MS2 coat protein ([3]; input ligand: FMN 200 uM): 18.1 nM
- apparent KD of MS2 coat protein [3, 4]: 13.9 nM
- apparent KD of MS2 coat protein ([3]; input ligand: none): 16.5 nM

Sequence: UUUAGCGUUACAGGAUAUGGUGAGGAUCACCCACUAGAAGGGUAAACAUGUGCGUCGUACAUGAGGAUCACCCAUGUAGGGCGU (Eterna round: R96, puzzle: Same State NG 1)
- apparent KD of MS2 coat protein ([3]; input ligand: FMN 200 uM): 14.4 nM
- apparent KD of MS2 coat protein [3, 4]: 13.7 nM
- apparent KD of MS2 coat protein ([3]; input ligand: none): 22.6 nM

Sequence: UUUAGUUGCGGGCAGGAUAUGUAUUAAAAUACAUGAGGAUCACCCAUGUGAGACCGAAAAGGUCUACAGAAGGGCCAAUCGCGAC [Laonerce - 20] (puzzle: Same State 2)
- apparent KD of MS2 coat protein [3, 5]: 16.1 nM
- apparent KD of MS2 coat protein [3, 6]: 66 nM
- apparent KD of MS2 coat protein [3, 7]: 79.5 nM

Sequence: UUUAGUUGCGGGCAGGAUAUGUAUUAAAAUACAUGAGGAUCACCCAUGUGCGGGUAUAACACCCGACAGAAGGGCCAAUCGCAAC [Laonerce - 6] (puzzle: Same State 2)
- apparent KD of MS2 coat protein [3, 5]: 22.2 nM
- apparent KD of MS2 coat protein [3, 6]: 142 nM
- apparent KD of MS2 coat protein [3, 7]: 240 nM

Sequence: UUUAUACAUGAGGAUCACCCAUGUCAACGUAGUCGAGGAUAUGGGCAGCCGUGAGGCGUACUAGAAGGCGAAGAGG [JL-ss1-3.08 ViennaUCT mod] (puzzle: Same State 1)
- apparent KD of MS2 coat protein [3, 5]: 49.7 nM
- apparent KD of MS2 coat protein [3, 6]: 38.8 nM
- apparent KD of MS2 coat protein [3, 7]: 118 nM

Sequence: UUUGCAUGACGAGGAUAUCAUUUAUUUCUUGAUUGAGAAGGCGUUUUUUUUAUUACCUAACAUGAGGAUCACCCAUGUGACAGU [JR_SSNG1_Sub045] (Eterna round: R96, puzzle: Same State NG 1)
- apparent KD of MS2 coat protein ([3]; input ligand: FMN 200 uM): 14.8 nM
- apparent KD of MS2 coat protein [3, 4]: 19.6 nM
- apparent KD of MS2 coat protein ([3]; input ligand: none): 18.4 nM

From the supplement of paper PMC9170038
